For 1 substance, Kd results are on record in article PMC8928417.

In the assay the target is biotinylated histone H3 peptide trimethylated at lysine 27, H3K27me3 (21–44) (UniProt P68431). As to the kind of experiment: peptide or protein array.

As a reminder, the Kd is the equilibrium constant for the complex coming apart. Low readings indicate a tighter complex, high ones a looser complex. As for “polycomb-based transcription factor (PcTF), monovalent (from UniProt Q9HC52 1-62) (designed binder)”, the dissociation constant Kd lay in the range of 5.14 to 8.95 µM.
